Source: patent publication US8969289
Where a chain is given by its changes, count along the chain named. Each block holds one molecule with its values, some of them ahead of it. Positions of bridges follow the written chain, without caps; N, C: chain ends. No end group written: not given here.

What was measured:
human β-klotho (human) = human β-klotho (human) (UniProt Q86Z14); experiment: cell-based or functional assay
[1] = biological target: β-klotho of differentiated 3T3-L1 adipocytes (mouse) (UniProt Q99N32); experiment: cell-based or functional assay
Chain of β-klotho of differentiated 3T3-L1 adipocytes (mouse) (Q99N32 whole entry): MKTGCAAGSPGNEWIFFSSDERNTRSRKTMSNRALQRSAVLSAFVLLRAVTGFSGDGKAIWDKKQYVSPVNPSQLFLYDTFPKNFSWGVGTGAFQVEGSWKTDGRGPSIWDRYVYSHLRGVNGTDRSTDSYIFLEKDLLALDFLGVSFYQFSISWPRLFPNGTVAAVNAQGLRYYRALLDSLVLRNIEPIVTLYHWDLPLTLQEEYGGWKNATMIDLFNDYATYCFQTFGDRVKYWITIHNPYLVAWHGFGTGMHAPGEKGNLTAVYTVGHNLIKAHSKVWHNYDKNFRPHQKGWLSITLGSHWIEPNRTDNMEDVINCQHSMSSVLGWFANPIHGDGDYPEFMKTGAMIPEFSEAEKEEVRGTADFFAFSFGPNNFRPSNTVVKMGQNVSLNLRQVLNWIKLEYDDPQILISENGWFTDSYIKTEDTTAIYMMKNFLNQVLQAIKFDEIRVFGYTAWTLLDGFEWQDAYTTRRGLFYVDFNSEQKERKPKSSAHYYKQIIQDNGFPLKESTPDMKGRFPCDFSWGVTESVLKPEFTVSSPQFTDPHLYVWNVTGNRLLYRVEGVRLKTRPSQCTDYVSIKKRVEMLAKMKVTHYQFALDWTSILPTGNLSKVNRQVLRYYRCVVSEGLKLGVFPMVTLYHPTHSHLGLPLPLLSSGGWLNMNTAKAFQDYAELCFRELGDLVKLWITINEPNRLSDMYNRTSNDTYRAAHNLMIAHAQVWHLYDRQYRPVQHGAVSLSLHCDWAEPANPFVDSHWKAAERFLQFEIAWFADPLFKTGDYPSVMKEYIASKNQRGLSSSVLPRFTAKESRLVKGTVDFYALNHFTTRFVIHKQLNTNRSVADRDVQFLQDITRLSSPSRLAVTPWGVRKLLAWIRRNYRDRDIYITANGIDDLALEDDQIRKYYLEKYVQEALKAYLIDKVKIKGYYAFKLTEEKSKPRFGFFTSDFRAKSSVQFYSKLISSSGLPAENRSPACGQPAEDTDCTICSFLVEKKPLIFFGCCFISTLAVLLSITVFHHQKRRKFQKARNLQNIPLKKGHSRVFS

Amylin receptor = Amylin receptor (chimpanzee; human, UniProt O60896 24-148); experiment: cell-based or functional assay
Chain of Amylin receptor (O60896 24-148): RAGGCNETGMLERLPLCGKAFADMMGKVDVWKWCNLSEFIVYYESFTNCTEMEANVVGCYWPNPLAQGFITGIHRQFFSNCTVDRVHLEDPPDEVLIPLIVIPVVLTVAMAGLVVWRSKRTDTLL

human serum albumin [2] = biological target: T1, human serum albumin (human, UniProt P02768 25-609); experiment: isothermal titration calorimetry (refers to FIG. 11)
T1 construct: mature; Purified or recombinant albumin from suppliers; also called HSA; HuSA
Method: SABA-FGF21 fusion protein plus buffer was placed in the instrument sample cell at a concentration range of 0.4 to 1.0 mg/mL protein. The matching buffer was placed in the reference cell. Concentrations were determined using extinction coefficients calculated from the protein sequences of the pure proteins. The instrument reaction cell was equilibrated at 37° C. […] The resultant thermogram data was fitted using Origin™ evaluation software package (Microcal Inc.) version 2.0.2 to estimate the stochiometry, enthalpy, and equilibrium disassociation constant (K_D) of the protein-protein binding reaction.

human serum albumin [3] = biological target: T1, human serum albumin; experiment: comment in the summary table; Biacore at lowered pH; target not given, HSA by paragraph 278

Molecule: His-tagged FGF21 (from UniProt Q9NSA1 29-209) (ligand)
EC50 (potency), pERK 1/2 in HEK β-Klotho expressing stable cells (human β-klotho (human)): 7 nM
Efficacy (% of His6-tagged FGF21 maximal activity), pERK 1/2 in HEK β-Klotho expressing stable cells (human β-klotho (human)): 100%
EC50, pERK 1/2 in 3T3-L1 adipocytes [1]: 4 nM
Fold Activation, pERK 1/2 in 3T3-L1 adipocytes [1]: 2.1 fold

B1: SABA1.7-(ED)5G-Cys-PEG20-Amylin-CONH2 (designed binder)
chain: MGVSDVPRDLEVVAATPTSLLISWHSYYEQNSYYRITYGETGGNSPVQEFTVPYSQTTATISGLKPGVDYTITVYAVYGSKYYYPISINYRTEIEDEDEDEDEDGC
modifications: Maleimide-PEG20 spacer (X1) between the Cys after (ED)5G and the amylin peptide; disulfide bridge between the two Cys of the amylin part; C-terminal amidation
Cell based Potency (EC50), cellular cAMP assay (Amylin receptor): 12.2 nM
Efficacy (% of native peptide ligand maximal activity), cellular cAMP assay (Amylin receptor): 119%

B3: SABA4.1 (designed binder)
chain: MGVSDVPRDLEMVAATPTSLLISWEDDSYYSRYYRITYGETGGNSPVQEFTVPSDLYTATISGLKPGVDYTITVYAVTYDVTDLIMHEPISINYRTEIDKPSQHHHHHH
notes: Core 4 Adnectin (carries a scaffold mutation) with AdNT1, AdCT1 and His6
fold decrease in KD at pH < 6.0 (human serum albumin [3]): > 2 fold

Continued, values first:

Kd (human serum albumin [2]): ~4 nM
B2: SABA1-FGF21v1 (designed binder)
chain: MGVSDVPRDLEVVAATPTSLLISWHSYYEQNSYYRITYGETGGNSPVQEFTVPYSQTTATISGLKPGVDYTITVYAVYGSKYYYPISINYRTEIEKPSQGSGSGSGSGSGSGSPIPDSSPLLQFGGQVRQRYLYTDDAQQTEAHLEIREDGTVGGAADQSPESLLQLKALKPGVIQILGVKTSRFLCQRPDGALYGSLHFDPEACSFRELLLEDGYNVYQSEAHGLPLHLPGNKSPHRDPAPRGPARFLPLPGLPPALPEPPGILAPQPPDVGSSDPLSMVGPSQGRSPSYAS
notes: Single-chain fusion: SABA core 1 with AdNT1 leader and AdCT7 tail, (GS)7 linker, FGF21 core with FNT3 leader and C-terminal S; also called SABA-FGF21v1 fusion; FGF21-SABA fusion

Efficacy (% of native peptide ligand maximal activity), cellular cAMP assay (Amylin receptor): 100%
Molecule: KCNTATCATQRLANFLVRSSNNLGPVLPPTNVGSNTY-NH2 (disulfide 2-7) [Amylin Control Peptide]

fold decrease in KD at pH < 6.0 (human serum albumin [3]): > 2 fold
B4: SABA5.1 (designed binder)
chain: B3 chain with M12V
notes: Scaffold-perfect version of SABA4 with the same BC, DE and FG loops; AdNT1, AdCT1 and His6
